Source: patent US20080199467A1 (published 2008)
One block for each binder: values may come before it.

Tests used:
Experiment in all cases: saturation binding ELISA (immobilized ligand)
[1] = biological target: CML
[2] = biological target: T1, amphoterin (UniProt P09429 1-215)
T1 chain: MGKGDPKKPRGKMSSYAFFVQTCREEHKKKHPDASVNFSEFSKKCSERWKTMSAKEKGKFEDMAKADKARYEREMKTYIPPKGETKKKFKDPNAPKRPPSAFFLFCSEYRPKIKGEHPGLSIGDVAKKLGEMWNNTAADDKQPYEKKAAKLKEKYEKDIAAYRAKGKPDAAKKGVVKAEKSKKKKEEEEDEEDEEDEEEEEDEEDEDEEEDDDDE

[3] = biological target: T2, S100b (UniProt P04271 2-92)
T2 chain: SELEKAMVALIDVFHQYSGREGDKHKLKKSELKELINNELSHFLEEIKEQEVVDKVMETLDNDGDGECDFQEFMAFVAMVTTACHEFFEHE

Kd [1]: 75 nM
B1: TTP4000 (Fc fusion)
chain: QNITARIGEPLVLKCKGAPKKPPQRLEWKLNTGRTEAWKVLSPQGGGPWDSVARVLPNGSLFLPAVGIQDEGIFRCQAMNRNGKETKSNYRVRVYQIPGKPEIVDSASELTAGVPNKVGTCVSEGSYPAGTLSWHLDGKPLVPNEKGVSVKEQTRRHPETGLFTLQSELMVTPARGGDPRPTFSCSFSPGLPRHRALRTAPIQPRVWEPVPLEEVQLVVEPEGGAVAPPSVFLFPPKPKDTLMISRTPEVTCVVVDVSHEDPEVKFNWYVDGVEVHNAKTKPREEQYNSTYRVVSVLTVLHQDWLNGKEYKCKVSNKALPAPIEKTISKAKGQPREPQVYTLPPSRDELTKNQVSLTCLVKGFYPSDIAVEWESNGQPENNYKTTPPVLDSDGSFFLYSKLTVDKSRWQQGNVFSCSVMHEALHNHYTQKSLSLSPGK
modifications: N-terminal residue glutamine (Q) or pyroglutamic acid (pE) or a mixture thereof; glycosylation sites at N2 and N288 (numbering of the processed protein); C-terminal residue may be cleaved off

Kd [2]: 40 nM | Kd [3]: 77 nM
B2: RAGE fusion protein TTP-4000 (Fc fusion)
chain: B1 chain
modifications: N-terminal residue glutamine (Q) or pyroglutamic acid (pE) or a mixture thereof; glycosylation sites at N2 and N288 (numbering of the processed protein); C-terminal residue may be cleaved off
